Experimental data reported in paper PMC5244355.

Experiments:
[1] = biological target: α-syn NAC (α-syn 57–102) (human) (UniProt P37840)
[2] = biological target: α-syn ΔC (α-synuclein A53T deletion mutant lacking most of the C-terminal part) (human)
[3] = biological target: α-synuclein A53T amyloid fibres (human) (UniProt P37840); assay: co-sedimentation; purified fibres (3.5 μM at monomer concentration) with 0.7 μM CCT or GroEL in 25 mM Tris pH 7.4, 5 mM MgCl2, 150 mM NaCl, 10% glycerol, 30 min, room temperature; 141,000 xg, 60 min, 4 °C; pellet and supernatant on SDS-PAGE, Coomassie, ImageJ

chaperonin CCT (chaperonin containing TCP-1), bovine testis, sequence (Q3MHL7 whole entry, looked up): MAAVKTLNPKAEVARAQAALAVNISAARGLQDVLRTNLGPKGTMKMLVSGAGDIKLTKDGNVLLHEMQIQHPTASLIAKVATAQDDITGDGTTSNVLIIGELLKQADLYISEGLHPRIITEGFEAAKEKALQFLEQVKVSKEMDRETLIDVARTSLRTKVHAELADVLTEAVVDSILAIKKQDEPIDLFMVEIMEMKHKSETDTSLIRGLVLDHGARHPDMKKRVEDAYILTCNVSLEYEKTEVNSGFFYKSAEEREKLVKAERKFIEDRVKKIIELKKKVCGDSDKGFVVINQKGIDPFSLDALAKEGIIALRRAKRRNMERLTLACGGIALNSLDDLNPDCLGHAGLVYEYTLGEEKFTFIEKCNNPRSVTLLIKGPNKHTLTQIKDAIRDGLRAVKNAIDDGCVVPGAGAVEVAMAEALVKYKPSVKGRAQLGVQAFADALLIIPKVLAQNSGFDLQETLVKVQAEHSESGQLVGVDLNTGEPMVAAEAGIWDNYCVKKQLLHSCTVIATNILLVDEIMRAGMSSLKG
chaperonin CCT (chaperonin containing TCP-1), bovine testis, sequence (Q3T0K2 whole entry, looked up): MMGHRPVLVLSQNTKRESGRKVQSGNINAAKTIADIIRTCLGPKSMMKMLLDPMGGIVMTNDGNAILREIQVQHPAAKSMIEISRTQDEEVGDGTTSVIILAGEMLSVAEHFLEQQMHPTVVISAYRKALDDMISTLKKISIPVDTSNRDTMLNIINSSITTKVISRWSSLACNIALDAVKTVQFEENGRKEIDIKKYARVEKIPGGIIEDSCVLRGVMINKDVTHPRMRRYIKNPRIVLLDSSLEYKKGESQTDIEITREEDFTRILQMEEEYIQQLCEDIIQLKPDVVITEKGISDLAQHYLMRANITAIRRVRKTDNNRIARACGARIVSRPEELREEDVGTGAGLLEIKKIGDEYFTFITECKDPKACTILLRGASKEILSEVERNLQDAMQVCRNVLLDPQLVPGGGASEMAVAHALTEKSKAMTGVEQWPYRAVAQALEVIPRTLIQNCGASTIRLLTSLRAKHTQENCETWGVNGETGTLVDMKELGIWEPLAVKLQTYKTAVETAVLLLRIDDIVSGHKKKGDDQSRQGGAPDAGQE
chaperonin CCT (chaperonin containing TCP-1), bovine testis, sequence (Q3ZBH0 whole entry, looked up): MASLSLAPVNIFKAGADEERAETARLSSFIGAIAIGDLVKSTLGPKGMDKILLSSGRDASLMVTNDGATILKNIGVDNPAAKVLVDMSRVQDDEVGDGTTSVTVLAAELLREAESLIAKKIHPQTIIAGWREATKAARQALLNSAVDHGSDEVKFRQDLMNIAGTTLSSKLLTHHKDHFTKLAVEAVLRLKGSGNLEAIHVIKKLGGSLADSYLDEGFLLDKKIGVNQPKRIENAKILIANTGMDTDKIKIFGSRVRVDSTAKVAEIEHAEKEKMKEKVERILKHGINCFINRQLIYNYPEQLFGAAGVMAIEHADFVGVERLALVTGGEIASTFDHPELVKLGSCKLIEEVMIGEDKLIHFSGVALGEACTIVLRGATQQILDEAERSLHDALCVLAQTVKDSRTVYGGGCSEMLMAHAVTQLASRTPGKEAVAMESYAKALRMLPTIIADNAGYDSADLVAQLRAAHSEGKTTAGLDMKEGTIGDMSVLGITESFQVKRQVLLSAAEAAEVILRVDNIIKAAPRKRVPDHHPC
chaperonin CCT (chaperonin containing TCP-1), bovine testis, sequence (Q32L40 whole entry, looked up): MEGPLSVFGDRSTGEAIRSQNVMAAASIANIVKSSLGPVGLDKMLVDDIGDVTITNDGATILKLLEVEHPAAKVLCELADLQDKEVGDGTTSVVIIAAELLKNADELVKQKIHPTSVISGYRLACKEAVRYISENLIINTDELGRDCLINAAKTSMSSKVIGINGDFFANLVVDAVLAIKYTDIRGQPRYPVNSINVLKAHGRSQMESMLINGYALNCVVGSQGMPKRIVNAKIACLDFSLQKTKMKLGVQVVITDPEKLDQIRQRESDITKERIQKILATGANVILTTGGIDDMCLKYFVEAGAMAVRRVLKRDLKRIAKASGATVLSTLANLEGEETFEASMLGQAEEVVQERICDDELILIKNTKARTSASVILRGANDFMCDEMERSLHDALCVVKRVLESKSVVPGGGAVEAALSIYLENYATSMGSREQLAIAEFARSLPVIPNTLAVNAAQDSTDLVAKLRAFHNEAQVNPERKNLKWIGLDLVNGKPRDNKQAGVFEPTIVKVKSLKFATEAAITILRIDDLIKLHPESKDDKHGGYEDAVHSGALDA

percentage of α-syn NAC fibres (ThT fluorescence) with ADP and CCT at a molar ratio of 1:50 CCT:deletion mutant [1]	percentage of α-syn ΔC fibres (ThT fluorescence) with ADP and CCT: 33% at a molar ratio of 1:10, 58% at 1:50 [2]	percent of CCT cosedimented with fibres [3]	Substance
38%	58%		chaperonin CCT (chaperonin containing TCP-1), bovine testis (from UniProt Q32L40 1-556; Q3ZBH0 1-535; Q3T0K2 1-545; Q3MHL7 1-531) (complex)
		< 60%	chaperonin CCT (chaperonin containing TCP-1), bovine testis, Q32L40 1-556; Q3ZBH0 1-535; Q3T0K2 1-545; Q3MHL7 1-531
